The assay deals with recombinant LRPPRC protein purified from 293F cells (human, UniProt P42704 60-1394). Nature of the assay: ELISA. The conditions noted are these: both partners purified. A general note: An ELISA detects its analyte on a solid surface through an enzyme-linked reagent.

B1: Aedes aegypti venom allergen-1 (AaVA-1), recombinant, from Drosophila S2 cells (natural protein)
chain: NYCDQSLCRRGPHVACNAPTQFGSACGQEPKFVKMDARMKNLLLKKHNELRAEIACGKHGFPQAARMPTLVWDDELAHIASFNARKCIFAHDKCRNTREFKFAGQNLAITAFAGYNFQAADRAENFTQEWFNEHKDCPKSYVDSYPMSHSGPQIGHFTQMVNDRAWKMGCSMVHYKNGRVIKYYLVCNYSMTNMIEEPIYTRGSAGSKCQTGQNPQYRGLCSPREKVRSESYRG
notes: also called AAEL000793; purified AaVA-1
For the molecule B1, the binding result is “binds”.

For the origin of these results see PMC6959235, “A mosquito salivary protein promotes flavivirus transmission by activation of autophagy” (Nature Communications, 2020).
